# Laboratory results as given in US12371675B2, “Process and microorganism for synthesis of adipic acid from carboxylic acids” (THE GOVERNING COUNCIL OF THE UNIVERSITY OF TORONTO, priority 2015, dated 2025).
# B1: EREDMT: 2-enoate reductase (ERED) from Moorella thermoacetica ATCC 39073 (protein)
# chain: MVVAYTRLFEPIKIGKVEIKNKIAMAPMGVLGLATQDGCFSKRVVDYYVERAKGGTGLIITSVTKVDNEIERFKAGAVPVATANPLHFIATAGELTERVHAYGTKIFLQLGMGFGRVAAPILLESHPVAPSALPNFWDPSITCRELTTAEVETLVQRASEAAEIAVEAGFDGVEIHAMHEGYLLDQFTIALFNRRGDKYGGALEDRLTFPIEIVRAIKDRVGKDFPVVLRFSIKNYIKDWRQGGLPGENFQEKGRDVEEALAAAKILEGAGYDGFDADAGSYDAWYWAHPPVYQKHGCYLPLTQRLKEVVKVPVIVAGRLEIPELAEEALVKGQADMIAIGRGLLTDPYWVNKVMTGRSKNIRPCIGCHDGCLGRGFLGRPLSCTVNPACGREEEYAIDRAPEAKQVMVIGGGVAGMEAARVAALRGHRVSLYEKSDRLGGHVVEAAVPDFKADDGRLLEWYKTELGELQVEIHLNQEVTPEFVEEKNPDVVVVATGSTPAIPDIPGVNKDKVTTVSDLLLGKKQAGDRVVIIGGGLAGCETALWLAQQGKDVTIIEILDDLMRAGIPVPYMNRMMLLDLLKMNGVKWLTETSVLEVTDDGVTLIGKTYQRSPLPADTVILAVGFAADQRLYNALRDKIPNLYLIGDSREPRNILAAIWEGYEVGRGI
# B2: EREDCL: 2-enoate reductase (ERED) from Clostridium ljungdahlii DSM 13528 (protein)
# chain: MKNKSLFQPIKIGKMEVKNKISMAPMGAFGLVDNEGCYNQRAIDYYVERAKGGTGLIITSITKVENELDKVVPGIIPVISTNPGRFLMTSSEMTERVHAYGAKIFLQLTMGFGRSGAPGTLLTSQPVSASDIPNYWDPTVTCRALTTSEVEWIVSKFIEGADIAQKADFDGVEIHAVHEGYLLDQFTLSIFNRRTDKYGGDLRGRLQLPIEIVQGIKARLGDDFPVGLRYSVKSCIKDWRQGGLPDEDYLEKGRDLKEGLDAAKILEAAGYDELNTDLGTYDAWYWSHPPIYQKNGLYLPYTKELKKVVKIPVIVAGKLGIPEDAEKALDDKAADMIGLGRPLLADPYWPKKVLSDNSERIRPCIGCHTGCLGRGFEGKPLSCTVNPAVGRERYYEIKPTLTPKKVMVVGGGVAGMEAARIIKMRGHDVTIYEGTDKLGGVIIPGSVPDFKVDDRRLIDWYKSEIKELEVKVNFNTKVTEELVEEEKPDVVIIATGAKEIKINVPGIEKDKVITALELLNDNKKVGNDVLMVGGGLVGCEAALYLAKQGKNVTIVEAKDTLLNSSKPIPHMNKIMLIDLLNMYNVKAITNNSLLEVTDKGAVLINNKFKKQEVSADTVTIAVGFKSDRELYNKLNGNIADLYLIGDAYQSANIMNAIWSANEIGLNC
# B3: EREDCT: 2-enoate reductase (ERED) from Clostridium tyrobutyricum (protein)
# chain: MKNKSLFEPIKIGKVEVKNKISMAPMGAFGLVDNEGCYNQRAVDYYVERAKGGTGLIITSITKVENEIDKVVPGVIPIISINPGRFIMTSSEMTERVHSYGSKIFLQLTMGFGRSGAPGTLLTSQPVSASSVPNYWDPTVTCRELTTSEVEWIVAKFIQGAAIAQKAGFDGVEIHAVHEGYLLDQFTLSIFNRRTDKYGGDLRGRLQLPIEIVQGIKAQVGSDFPVGLRYSVKSCIKDWRQGGLPDEDYVEKGRDLKEGLESAKILEAAGYDELNTDVGTYDAWYWSHPPLYQKDGLYLPYTKELKKVVKIPVIVAGKLGVPQEAEKALDEGGADMIGLARPLLSDAYWPKKVLSGHPERIRPCIGCHVGCLGRGFEGKPLSCAVNPAAGRERYYEIRPAAIPKKVLIAGGGVAGMEAARMAVLRGHKVTLYESTDQLGGEIVPGSVPDFKIDDRRLLDWYRNEMKELKINVIFNTEVTDKLVGKEQPDVVIVATGANDVKIKLPGIEKDKVSTAVDILNGAKKSGKNVLIVGGGLVGCETALYLAKAGKKVAIVEAKDKILDAGKPIPHMNKIMLEDLIKKYNIKVITGNSLLEVTGDGAVLIDNKFKQQEVYADTIVISIGFKSNRKLYNKLHGKVTDLYLIGDAYQTANIMDAIWSGNEIGLNC
# B4: YST4373: OYE protein from Saccharomyces cerevisiae (protein)
# chain: MPFVKDFKPQALGDTNLFKPIKIGNNELLHRAVIPPLTRMRAQHPGNIPNRDWAVEYYAQRAQRPGTLIITEGTFPSPQSGGYDNAPGIWSEEQIKEWTKIFKAIHENKSFAWVQLWVLGWAAFPDTLARDGLRYDSASDNVYMNAEQEEKAKKANNPQHSITKDEIKQYVKEYVQAAKNSIAAGADGVEIHSANGYLLNQFLDPHSNNRTDEYGGSIENRARFTLEVVDAVVDAIGPEKVGLRLSPYGVFNSMSGGAETGIVAQYAYVLGELERRAKAGKRLAFVHLVEPRVTNPFLTEGEGEYNGGSNKFAYSIWKGPIIRAGNFALHPEVVREEVKDPRTLIGYGRFFISNPDLVDRLEKGLPLNKYDRDTFYKMSAEGYIDYPTYEEALKLGWDKN
# B5: BSU2381: OYE protein from Bacillus subtilis subsp. subtilis str. 168 (protein)
# chain: MARKLFTPITIKDMTLKNRIVMSPMCMYSSHEKDGKLTPFHMAHYISRAIGQVGLIIVEASAVNPQGRITDQDLGIWSDEHIEGFAKLTEQVKEQGSKIGIQLAHAGRKAELEGDIFAPSAIAFDEQSATPVEMSAEKVKETVQEFKQAAARAKEAGFDVIEIHAAHGYLIHEFLSPLSNHRTDEYGGSPENRYRFLREIIDEVKQVWDGPLFVRVSASDYTDKGLDIADHIGFAKWMKEQGVDLIDCSSGALVHADINVFPGYQVSFAEKIREQADMATGAVGMITDGSMAEEILQNGRADLIFIGRELLRDPFFARTAAKQLNTEIPAPVQYERGW
# Columns and labels:
# [1] = Whole-cell biotransformation of muconic acid by E. coli expressing EREDs; type: cell-based; conditions: 0.7 mM, 24-hr incubation
# Method: After a 24-hr incubation, no muconic acid or 2-hexenedioic acid were detected in the culture, and a 99% yield of adipic acid was obtained (FIGS. 8a, 8b, and 8c). […] The 3-hexenedioic acid-like compound appears to be an inefficient substrate for these EREDS. This is similar to the mutated 2,4-dienoyl-CoA reductases from E. coli, which catalyze hydrogenation of 2,4-dienoyl CoA into 3-enoyl CoA (Tu, X., Hubbard, P. A., Kim, J. J. P. & Schulz, H. Two distinct proton donors at the active site of Escherichia coli 2,4-dienoyl-CoA reductase are responsible for the formation of different products. Biochemistry 47, 1167-1175 (2008).).
# [2] = Whole-cell anaerobic biotransformation by E. coli expressing EREDs; type: cell-based; conditions: 20 mM 2-hexenedioic acid
# [3] = OYE hydrogenation activity screen, NADPH oxidation at 340 nm; type: biochemical; conditions: 1 mM substrate, 0.25 mM NADPH, 2.5 μg protein; cut-off 0.05 U/mg protein; ND = not detected
# Summary of the method: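 Purified OYEs (2.5 μg) were incubated anaerobically for 20 min at room temperature with 1 mM substrate and 0.25 mM NADPH in 50 mM potassium phosphate pH 7.0, 10 mM NaCl. Activity was followed as NADPH oxidation by the absorbance decrease at 340 nm (ε340=6,200/M·cm).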
# [4] = Whole-cell biotransformation with E. coli strains over-expressing OYEs; type: cell-based; conditions: E. coli over-expressing OYE
Molecule,"yield of adipic acid from trans,trans-muconic acid [1] [%]",time to complete conversion of 2-hexenedioic acid to adipic acid [2] [h],Activity [U/mg protein] 2-cyclohexen-1-one [3] [U/mg protein],hydrogenation of 2-hexenedioic acid into adipic acid [4],further results
B1,99,6,,,"yield of adipic acid from cis,cis-muconic acid [1]: 99%"
B2,99,48,,,
B3,,,,,production of adipic acid [2]: inactivity
B4,,,0.23,no hydrogenation,Activity [U/mg protein] acrolein [3]: 0.17 U/mg protein
B5,,,0.21,no hydrogenation,
